Where two headings read alike, the source gives them in different places. Where no end group is shown, it is not given here.
What was measured:
UAP56 [1] = molecular target: T1, UAP56 (human, UniProt Q13838 1-428); test: AMP-PNP
UAP56 [2] = molecular target: T1, UAP56
UAP56 [3] = molecular target: T1, UAP56; test: RNA + AMP-PNP
UAP56 [4] = molecular target: T1, UAP56; test: RNA + AMP-PNP; remark: listed apart in the source
UAP56 [5] = molecular target: T1, UAP56; test: AMP-PNP; remark: listed apart in the source

Binder | Kd (UAP56 [1]) [µM] | koff (UAP56 [2]) [s⁻¹] | koff (UAP56 [3]) [s⁻¹] | Kd (UAP56 [4]) [µM] | koff (UAP56 [5]) [s⁻¹]
VDVAAEKKVVKITSEIPQTERMQKRAERFNVPVS (also: biotinylated, site not given here) [SARNP UCM-1 peptide, biotinylated] | 12 | 3.44 | 2.67 | 13 | –
SISRKSEDDEKLKKRKERFGIVTS (also: biotinylated, site not given here) [SARNP UCM-4 peptide, biotinylated] | 11 | 1.39 | 1.68 | 12 | 0.83
